Experimental findings from US20050158748 are described below.

The target in data set [1] is synthetic peptide representing C-terminus of S6 protein.
Data set [2] has as its target ribosomal protein S6 (in purified 40S ribosomal subunits from liver).

B1: EE-tag/p70β^S6k (p70β-II isoform, N-terminal EE-tag) (protein)
chain: MAAVFDLDLETEEGSEGEGEPELSPADACPLAELRAAGLEPVGHYEEVELTETSVNVGPERIGPHCFELLRVLGKGGYGKVFQVRKVQGTNLGKIYAMKVLRKAKIVRNAKDTAHTRAERNILESVKHPFIVELAYAFQTGGKLYLILECLSGGELFTHLEREGIFLEDTACFYLAEITLALGHLHSQGIIYRDLKPENIMLSSQGHIKLTDFGLCKESIHEGAVTHTFCGTIEYMAPEILVRSGHNRAVDWWSLGALMYDMLTGSPPFTAENRKKTMDKIIRGKLALPPYLTPDARDLVKKFLKRNPSQRIGGGPGDAADVQRHPFFRHMNWDDLLAWRVDPPFRPCLQSEEDVSQFDTRFTRQTPVDSPDDTALSESANQAFLGFTYVAPSVLDSIKEGFSFQPKLRSPRRLNSSPRVPVSPLKFSPFEGFRPSPSLPEPTELPLPPLLPPPPPSTTAPLPIRPPSGTKKSKRGRGRPGR
Consider B1, for which the “in vitro kinase reaction: phosphorylation of the synthetic peptide” value in data set [1] was “p70β^S6k (p70β-II isoform) also phosphorylates this peptide but with slightly lower efficiency than observed with p70α^S6k”. Further, the “in vitro kinase reaction: phosphorylation of S6 protein in 40S subunits” value in data set [2] is “p70β^S6k (p70β-II isoform) phosphorylates the S6 protein in vitro nearly as efficiently as p70α^S6k”.
